This is an account of results in paper PMC6422423, “Constitutively active BRS3 is a genuinely orphan GPCR in placental mammals” (PLoS Biology, 2019).

Where no end group is shown, it is not given here.

Test [1] deals with turtle bombesin receptor subtype-3 (turtle (Chrysemys picta)). The test can be described thus: radioligand binding; displacement of 50 pM [125I]-Tyr42-GRP by unlabeled peptide on disaggregated transfected HEK293 cells; 1 h at 21°C; 24.5 mM HEPES pH 7.4, 98 mM NaCl; bound tracer separated by centrifugation.
Sequence of turtle bombesin receptor subtype-3 (turtle (Chrysemys picta)) (main, as listed by the source): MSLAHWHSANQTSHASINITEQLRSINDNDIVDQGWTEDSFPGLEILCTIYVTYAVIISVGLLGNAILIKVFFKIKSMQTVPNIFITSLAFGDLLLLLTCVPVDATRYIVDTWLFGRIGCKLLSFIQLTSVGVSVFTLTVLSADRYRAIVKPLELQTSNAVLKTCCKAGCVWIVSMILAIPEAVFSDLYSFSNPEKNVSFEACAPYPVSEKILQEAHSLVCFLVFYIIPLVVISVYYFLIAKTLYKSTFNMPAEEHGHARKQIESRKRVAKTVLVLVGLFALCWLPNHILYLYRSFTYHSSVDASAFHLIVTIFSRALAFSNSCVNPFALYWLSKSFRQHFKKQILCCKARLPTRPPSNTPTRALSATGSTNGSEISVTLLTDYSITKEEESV
Test [2] concerns the target chicken bombesin receptor subtype-3 (chicken (Gallus gallus)). The test is described as above.
Test [3] addresses aardvark bombesin receptor subtype-3 (aardvark (Orycteropus afer)). The test is described as above.
Test [4] concerns the target spotted gar bombesin receptor subtype-3 (spotted gar (Lepisosteus oculatus)). The description is as above.
Test [5] concerns the target turtle bombesin receptor subtype-3 (turtle (Chrysemys picta)). The test can be described thus: radioligand binding; displacement of 50 pM [125I]-Tyr-NMB by unlabeled peptide on disaggregated transfected HEK293 cells; 1 h at 21°C; 24.5 mM HEPES pH 7.4, 98 mM NaCl; bound tracer separated by centrifugation.
Test [6] concerns the target chicken bombesin receptor subtype-3 (chicken (Gallus gallus)). Described as above.
The target of test [7] is spotted gar bombesin receptor subtype-3 (spotted gar (Lepisosteus oculatus)). The description is as above.
Sequence of spotted gar bombesin receptor subtype-3 (spotted gar (Lepisosteus oculatus)) (main, as listed by the source): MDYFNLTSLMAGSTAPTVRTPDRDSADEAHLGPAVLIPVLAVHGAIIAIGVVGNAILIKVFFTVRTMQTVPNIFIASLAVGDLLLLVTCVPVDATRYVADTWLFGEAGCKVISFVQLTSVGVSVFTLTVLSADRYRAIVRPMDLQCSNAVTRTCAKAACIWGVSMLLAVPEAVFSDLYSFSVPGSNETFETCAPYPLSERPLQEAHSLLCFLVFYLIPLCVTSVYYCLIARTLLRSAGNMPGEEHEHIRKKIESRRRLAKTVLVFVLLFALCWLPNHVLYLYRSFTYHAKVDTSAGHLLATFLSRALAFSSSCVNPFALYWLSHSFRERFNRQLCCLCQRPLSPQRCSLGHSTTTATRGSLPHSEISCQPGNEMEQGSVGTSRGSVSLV

Sequence of aardvark bombesin receptor subtype-3 (aardvark (Orycteropus afer)) (P32247 other isoform, or with tags, fused parts or gaps): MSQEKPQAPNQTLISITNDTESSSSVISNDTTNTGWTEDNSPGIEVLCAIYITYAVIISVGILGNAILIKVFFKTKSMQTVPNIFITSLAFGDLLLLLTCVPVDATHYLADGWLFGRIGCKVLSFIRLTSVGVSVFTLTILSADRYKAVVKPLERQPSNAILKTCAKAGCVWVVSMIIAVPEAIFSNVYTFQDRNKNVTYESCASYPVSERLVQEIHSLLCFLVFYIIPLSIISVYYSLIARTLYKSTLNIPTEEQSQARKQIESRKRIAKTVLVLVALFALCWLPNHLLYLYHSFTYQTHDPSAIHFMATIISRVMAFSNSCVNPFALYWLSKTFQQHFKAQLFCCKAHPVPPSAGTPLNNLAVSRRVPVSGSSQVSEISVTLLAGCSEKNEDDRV

As to APLQPGGSPALTKIYPRGSHWAVGHLM (ends and bridges not checked) [gastrin-releasing peptide, unlabeled ligand peptide of the radioligand binding assays], the IC50 in test [1] amounted to 0.14 nM; in test [2], 0.15 nM; in test [4], 0.17 nM; in test [5], 0.28 nM; in test [6], 0.18 nM; in test [7] it was 0.54 nM. This molecule also registered a Ki in test [3] greater than 1000 nM.
